# Data as given in patent US20220204581A1, “MONOMERIC PEPTIDE MULTI-AGONIST […] THE GLP1 RECEPTOR AND NPY RECEPTORS” (SYRACUSE UNIVERSITY, published 2022).
# Read-outs that look alike come from different tables or passages of the source. Where no end group is shown, it is not given here. The star is where a group is joined. azido = [N-]=[N+]=N*
# T1: human NPY2-R (human, UniProt P49146)
# T1 sequence: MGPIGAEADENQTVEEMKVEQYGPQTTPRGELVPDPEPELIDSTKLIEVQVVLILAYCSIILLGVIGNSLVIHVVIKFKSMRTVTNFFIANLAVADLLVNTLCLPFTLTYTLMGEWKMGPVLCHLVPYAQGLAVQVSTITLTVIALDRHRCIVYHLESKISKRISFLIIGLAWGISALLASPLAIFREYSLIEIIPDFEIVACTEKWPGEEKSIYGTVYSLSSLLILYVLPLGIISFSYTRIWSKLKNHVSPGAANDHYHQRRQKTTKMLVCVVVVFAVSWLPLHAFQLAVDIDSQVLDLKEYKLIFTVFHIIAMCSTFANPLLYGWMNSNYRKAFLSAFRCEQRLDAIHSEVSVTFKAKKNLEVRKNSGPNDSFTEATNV
# B1: GEP44 (peptide)
# peptide: HSQGTFTSDLSK(azido)YLEEEAVREFIAWLKNGGPSRHYLNLVTRQRY-NH2
# B2: EP38 (peptide)
# peptide: HGEGTFTSDLSKQMEEEAVRLFIEWLKNGGPSSTRQRY
# modifications: C-terminal amidation; K12-azido modification
# B3: EP44 (peptide)
# peptide: HSQGTFTSDLSK(azido)QINEEEAVRLFIEWLKNGGPSRHYLNLVTRQRY-NH2
# Columns and labels:
# human NPY1-R [1] = target: T2, human NPY1-R (human, UniProt P25929)
# human NPY1-R [2] = target: T2, human NPY1-R; remark: listed apart in the source
# human NPY1-R [3] = target: T2, human NPY1-R; test: cell-based or functional assay
# human GLP-1R [4] = target: T3, human GLP-1R (human, UniProt P43220); test: cell-based or functional assay
# human NPY1-R [5] = target: T2, human NPY1-R; test: cell-based or functional assay; remark: listed apart in the source
# human NPY2-R = target: T1, human NPY2-R; test: cell-based or functional assay
# human GLP-1R [6] = target: T3, human GLP-1R; test: cell-based or functional assay; remark: listed apart in the source
Molecule,EC50 (agonism of the Y1-R) (human NPY1-R [1]) [nM],EC50 Y1R (human NPY1-R [2]) [nM],EC50 (agonism of the Y1-R) (human NPY1-R [3]) [nM],EC50 (human GLP-1R [4]) [nM],EC50 Y1R (human NPY1-R [5]) [nM],EC50 Y2R (human NPY2-R) [nM],EC50 GLP1R (human GLP-1R [6]) [nM]
PYY1-36 (ligand),42,12,,,,,
B1,,,83,300000,24,10,0.33
B2,,,,,,> 300,0.08
B3,,,,,> 100,,
